# From US9962447B2, “Supramolecular aggregates comprising maleimido cores” (UFPEPTIDES S.R.L., priority 2013, dated 2018)
# B1: PWT2-N/OFQ: supramolecular aggregate of maleimido core PWT2 with nociceptin/orphanin FQ, made from PWT2 and [Cys18]N/OFQ-NH2 by thiol-Michael addition (conjugate)
# peptide: SCQRDCLTCQEKLHPALDSFDLEVCILECEEKVFPSPLWTPCTKVMARSSWQLSPAAPEHVAAALYQPRASEMQHLRRMPRVRSLFQEQEEPEPGMEEAGEMEQKQLQKRFGGFTGARKSARKLANQKRFSEFMRQYLVLSMQSSQRRRTLHQNGNVC
# Legend:
# [1] = tested on: vas deferens tissues taken from NOP(+/+) mice; experiment: Electrically stimulated vas deferens from NOP(+/+) mice; parameters: species or system mouse
# Procedure: The bath temperature was set at 33° C. Tissues were continuously stimulated through two platinum ring electrodes with supramaximal rectangular pulses of 1 ms duration and 0.05 Hz frequency. A resting tension of 0.3 g was applied to the vas deferens. […] Following an equilibration period of 60 min, the contractions induced by electrical field stimulation were stable.
# [2] = tested on: electrically stimulated mouse vas deferens; experiment: Electrically stimulated mouse vas deferens
# Procedure: The bath temperature was set at 33° C. Tissues were continuously stimulated through two platinum ring electrodes with supramaximal rectangular pulses of 1 ms duration and 0.05 Hz frequency. A resting tension of 0.3 g was applied to the vas deferens.
# assuming a slope value equal to unity, where CR indicate the ratio between agonist potency in the presence and absence of antagonist.
# MOP receptor = MOP receptor (Homo sapiens, UniProt P35372); experiment: Calcium mobilization in CHO cells expressing MOP receptor and Gαqi5; format: cell-based; conditions: inactive = inactive up to 1 μM
# Chain of MOP receptor (P35372 whole entry): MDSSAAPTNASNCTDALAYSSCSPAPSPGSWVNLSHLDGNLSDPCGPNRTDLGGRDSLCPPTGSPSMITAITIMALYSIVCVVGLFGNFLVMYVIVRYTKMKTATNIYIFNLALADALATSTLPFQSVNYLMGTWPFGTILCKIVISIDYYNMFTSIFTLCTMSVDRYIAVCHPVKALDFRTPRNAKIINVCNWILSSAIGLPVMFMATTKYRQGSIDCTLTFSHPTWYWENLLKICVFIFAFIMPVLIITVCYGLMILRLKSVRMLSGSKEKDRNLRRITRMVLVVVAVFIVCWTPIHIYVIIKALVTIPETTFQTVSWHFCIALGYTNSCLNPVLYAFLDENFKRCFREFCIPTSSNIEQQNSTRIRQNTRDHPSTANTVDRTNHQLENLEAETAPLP
# Procedure: (§1) Cell cultures were kept at 37° C. in 5% CO2 humidified air. In all cases experimental cultures were free from selection agents (hygromycin B, G418). When confluence was reached (3-4 days), cells were sub-cultured as required using trypsin EDTA and used for experimentation. Cells were seeded at a density of 50,000 cells/well into 96-well black, clear-bottom plates. After 24 hours incubation the cells were loaded with medium supplemented with 2.5 mM probenecid, 3 μM of the calcium sensitive fluorescent dye Fluo-4 AM and 0.01% pluronic acid, for 30 min at 37° C. Afterwards the loading solution was aspirated and 100 μl/well of assay buffer: Hank's Balanced Salt Solution (HBSS) supplemented with 20 mM HEPES, 2.5 mM probenecid and 500 μM Brilliant Black (Aldrich) was added. […] On-line additions were carried out in a volume of 50 μl/well. To facilitate drug diffusion into the wells in antagonist type experiments, the present studies were performed at 37° C. and three cycles of mixing (25 μl from each well moved up and down 3 times) were performed immediately after antagonist injection to the wells.
# (§2) Four mice were monitored in parallel. […] Animals locomotion was recorded for 60 min.
# [3] = tested on: locomotor activity of NOP(+/+) mice; experiment: Locomotor activity of NOP(+/+) mice; conditions: 0.25 nmole, 120 min post injection
# Procedure: (§3) Mice were positioned in a square plastic cage (40×40 cm), one mouse per cage. Four mice were monitored in parallel. Mouse horizontal activity was monitored by a camera while vertical activity was measured by an infrared beam array. Animals locomotion was recorded for 60 min.
# (§4) In vivo data are expressed as mean±sem of n animals. Data were analysed using one-way analysis of variance (ANOVA) followed by Dunnett post hoc test. Differences were considered statistically significant when p<0.05.
# [4] = tested on: vas deferens tissues taken from NOP(−/−) mice; experiment: Electrically stimulated vas deferens from NOP(−/−) mice; parameters: species or system mouse; conditions: CL95% in brackets
# Procedure: The mouse vas deferens were prepared as previously described (Calto et al., Eur J Pharmacol. 311, (1996) R3-5). Tissues were suspended in 5 ml organ baths containing heated Krebs solution (composition in mM: NaCl 118.5, KCl 4.7, KH2PO4 1.2, NaHCO3 25, glucose 10 and CaCl2 2.5) oxygenated with 95% O2 and 5% CO2. The bath temperature was set at 33° C. Tissues were continuously stimulated through two platinum ring electrodes with supramaximal rectangular pulses of 1 ms duration and 0.05 Hz frequency. A resting tension of 0.3 g was applied to the vas deferens. The electrically evoked contractions (twitches) were measured isotonically with a strain gauge transducer (Basile 7006, UgoBasile s.r.l., Varese, Italy) and recorded with the PC based acquisition system Power Lab (ADInstrument, USA). Following an equilibration period of 60 min, the contractions induced by electrical field stimulation were stable.
# [5] = tested on: spontaneous locomotor activity; experiment: Mouse locomotor activity, CD-1 mice, i.c.v.; format: in vivo
# [6] = tested on: locomotor activity of NOP(−/−) mice; experiment: Locomotor activity of NOP(−/−) mice; conditions: 0.25 nmole, 120 min post injection
# Procedure: as §3, §4
# human NOP receptor = human NOP receptor (Homo sapiens, UniProt P41146); experiment: Calcium mobilization in CHO cells expressing human NOP receptor and Gαqi5; format: cell-based; conditions: inactive = inactive up to 1 μM
# Chain of human NOP receptor (P41146 whole entry, the tested form may be a part): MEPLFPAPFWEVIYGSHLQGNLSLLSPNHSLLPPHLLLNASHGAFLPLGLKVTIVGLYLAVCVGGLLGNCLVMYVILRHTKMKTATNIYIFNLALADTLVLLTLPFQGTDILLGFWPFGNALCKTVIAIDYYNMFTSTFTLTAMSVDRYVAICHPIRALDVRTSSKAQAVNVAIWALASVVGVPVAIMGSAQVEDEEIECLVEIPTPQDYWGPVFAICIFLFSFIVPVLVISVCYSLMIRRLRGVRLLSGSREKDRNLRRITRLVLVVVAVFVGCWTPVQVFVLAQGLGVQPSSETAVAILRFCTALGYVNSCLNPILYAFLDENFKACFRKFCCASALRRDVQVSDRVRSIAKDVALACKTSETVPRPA
# Procedure: as §1, with “Cells were maintained in culture medium consisting of Dulbecco's MEM/HAM'S F-12 (50/50) supplemented with 10% foetal calf serum, penicillin (100 IU/ml), streptomycin (100 μg/ml), fungizone (2.5 μg/ml), geneticin (G418; 200 μg/ml) and hygromycin B ([…]). Cell cultures” for “Cell cultures”, “50 μl/well. […]” for “50 μl/well. To facilitate drug diffusion into the wells in antagonist type experiments, the present studies were performed at 37° C. and three cycles of mixing (25 μl from each well moved up and down 3 times) were performed immediately after antagonist injection to the wells.”
# as §2
molecule,measurement,setting,value
B1,pEC50,[1]; CL95% in brackets,7.92
same,Emax,[1]; maximal inhibition of electrically induced contractions,91 ± 2%
same,reversal of inhibitory effect after washing the tissue,[2],rather resistant to washing
same,Emax,[2]; % inhibition of control twitch,93 ± 2%
same,onset of inhibitory effect,[2]; after adding to the bath,slow inhibitory effect
same,pEC50,"[2]; inhibition of twitch response, CD1 mouse vas deferens, CL95% in brackets",7.78 (7.57-7.99)
same,time for inhibitory effect to reach the plateau,[2]; mouse vas deferens,10 min
same,pEC50,MOP receptor,inactive
same,Distance travelled (m),[3],104 ± 19 m
same,Immobility time,[3],3305 ± 390 s
same,Rearings (n),[3],96 ± 19 n
same,pEC50,[4],5.85 (5.55-6.15)
same,locomotor activity in overnight experiment,"[5]; i.c.v. at 11 AM, N/OFQ 10 nmole, PWT2-N/OFQ 0.25 nmole, measured 3 PM to 9 AM",statistically significant reduced distance travelled and rearing behaviour associate with increased immobility time for the whole time course of the experiment
same,acute effects on spontaneous locomotor activity,"[5]; i.c.v., CD-1 mice, recorded for 120 min",slow onset of action and prolonged effects compared to the natural peptide
same,Distance travelled (m),[6],203 ± 26 m
same,Immobility time,[6],2372 ± 525 s
same,Rearings (n),[6],625 ± 181 n
same,pEC50 (CL95%),human NOP receptor,8.83
